Experiment [1] has as its target murine VCAM-1 (vascular endothelial adhesion molecule-1) (murine) (UniProt P29533). In words: cell-based or functional assay.
The target is the same in experiment [2]. In words: bEnd.3 cells, unstimulated against IL-1α-stimulated.

These results are taken from patent publication US20030082187A1.

Chain of UniProt P29533 (P29533 25-739): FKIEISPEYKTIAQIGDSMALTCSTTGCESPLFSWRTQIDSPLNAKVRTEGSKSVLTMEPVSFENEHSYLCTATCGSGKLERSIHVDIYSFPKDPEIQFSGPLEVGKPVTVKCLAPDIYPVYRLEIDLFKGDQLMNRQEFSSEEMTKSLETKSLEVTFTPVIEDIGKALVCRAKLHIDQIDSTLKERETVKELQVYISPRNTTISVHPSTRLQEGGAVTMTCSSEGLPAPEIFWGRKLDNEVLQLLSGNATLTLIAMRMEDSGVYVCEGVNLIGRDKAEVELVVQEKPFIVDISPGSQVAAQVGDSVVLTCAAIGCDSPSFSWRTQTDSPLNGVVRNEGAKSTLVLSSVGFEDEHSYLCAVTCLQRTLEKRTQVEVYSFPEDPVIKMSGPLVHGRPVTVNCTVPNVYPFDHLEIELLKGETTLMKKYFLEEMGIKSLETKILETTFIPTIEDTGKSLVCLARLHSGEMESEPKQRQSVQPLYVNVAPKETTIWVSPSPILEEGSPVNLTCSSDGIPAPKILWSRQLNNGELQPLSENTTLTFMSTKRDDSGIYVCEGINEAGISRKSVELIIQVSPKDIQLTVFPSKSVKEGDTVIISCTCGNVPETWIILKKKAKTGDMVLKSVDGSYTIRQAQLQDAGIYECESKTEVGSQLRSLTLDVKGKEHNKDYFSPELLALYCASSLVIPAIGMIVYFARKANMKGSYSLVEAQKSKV

In experiment [1], “control IgG·tTF (R187) coaguligand (from UniProt P13726 33-251)” displayed a Generation of Factor Xa (intact cells, control/unstimulated) (ng per 10^4 cells per 60 min) of 0.26 and a Generation of Factor Xa (permeabilized cells, control/unstimulated) (ng per 10^4 cells per 60 min) of 0.41.
On to “anti-VCAM-1·tTF coaguligand (MK2.7 anti-VCAM-1 IgG covalently linked to truncated tissue factor) (from UniProt P13726 33-251)”, for which, in experiment [2], the percent lower amount bound to unstimulated versus stimulated cells worked out at 50%. In experiment [1], this substance returned a Generation of Factor Xa (intact cells, IL-1α) (ng per 10^4 cells per 60 min) of 3.17; a Generation of Factor Xa (intact cells, control/unstimulated) (ng per 10^4 cells per 60 min) of 1.64; a Generation of Factor Xa (permeabilized cells, IL-1α) (ng per 10^4 cells per 60 min) of 98.8; a Generation of Factor Xa (permeabilized cells, control/unstimulated) (ng per 10^4 cells per 60 min) of 49.2.
In experiment [1], “truncated tissue factor (tTF), unconjugated (from UniProt P13726 33-251)” displayed a Generation of Factor Xa (intact cells, control/unstimulated) (ng per 10^4 cells per 60 min) of 0.26 and a Generation of Factor Xa (permeabilized cells, control/unstimulated) (ng per 10^4 cells per 60 min) of 0.39.
